# Data as given in US20150246949A1, “Desmoglein 2 (DSG2) Binding Proteins and Uses Therefor” (UNIVERSITY OF WASHINGTON THROUGH ITS CENTER FOR …, priority 2012, published 2015).
# T1: soluble recombinant DSG2 (Homo sapiens, UniProt Q14126)
# T1 construct: purchased Leinco Technologies, Inc. (St. Louis, Mo.)
# T1 sequence (Q14126 50-609 limits assumed): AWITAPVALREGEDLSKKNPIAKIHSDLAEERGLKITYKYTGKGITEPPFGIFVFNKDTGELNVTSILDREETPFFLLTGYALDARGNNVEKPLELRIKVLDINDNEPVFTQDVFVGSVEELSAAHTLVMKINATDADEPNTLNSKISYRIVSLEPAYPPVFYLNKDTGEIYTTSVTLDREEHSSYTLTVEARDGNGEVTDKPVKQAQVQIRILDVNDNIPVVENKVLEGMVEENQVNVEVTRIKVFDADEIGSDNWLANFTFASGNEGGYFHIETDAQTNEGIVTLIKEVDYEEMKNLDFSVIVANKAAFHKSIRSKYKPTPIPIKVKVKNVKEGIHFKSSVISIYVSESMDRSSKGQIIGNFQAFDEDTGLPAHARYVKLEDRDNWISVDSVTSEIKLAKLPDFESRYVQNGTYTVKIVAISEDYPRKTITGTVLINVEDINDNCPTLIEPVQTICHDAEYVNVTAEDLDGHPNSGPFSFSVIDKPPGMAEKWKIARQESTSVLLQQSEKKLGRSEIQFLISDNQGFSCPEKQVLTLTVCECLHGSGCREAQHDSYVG
# B1: D261N (protein)
# chain: MKVSALKEKVSALKEKVSALKEKVSALKEKVSALKEGSGGGSGGGSGGGSNSIALKNNTLWTGPKPEANCIIEYGKQNPDSKLTLILVKNGGIVNGYVTLMGASDYVNTLFKNKNVSINVELYFDATGHILPDSSSLKTDLELKYKQTADFSARGFMPSTTAYPFVLPNAGTHNENYIFGQCYYKASNGALFPLEVTVMLNKRLPDSRTSYVMTFLWSLNAGLAPETTQATLITSPFTFSYIREDD
# Molecular target: T1, soluble recombinant DSG2
# Experiment: Western blot of dimeric Ad3 fiber knob mutants probed with soluble DSG2
# Assay type: binding
# Conditions: purified dimerized knob mutants
# Source text: FIG. 1. Residues found to be critically involved in binding to DSG2. A) Shown are the amino acid sequences of the Ad3 and Ad14p1 fiber knob. Beta sheets present in the Ad3 knob (PDB accession number 1H7Z_A) and Ad14 knob (PDB: 3F0Y_A) are indicated by lines. Black arrows indicate residues within the Ad3 fiber knob which, when mutated individually, ablate or reduce binding to DSG2. […] B) Schematic structure of dimeric Ad3 fiber knob mutants. The fiber knob domain and one shaft motif was fused through a flexible linker to a homodimerizing K-coil domain (41). The proteins are self-dimerizing and can be purified by His-Ni-NTA affinity chromatography. C-F) Analysis of binding of dimeric Ad3 fiber knob mutants to soluble DSG2. C and D) Coomassie staining. 10 μg of purified Ad3 fiber knob (unboiled) were loaded per lane. Trimeric forms of the fiber knobs are indicated by an arrow. The gel contained SDS and the loading buffer containing DTT, which caused the disassembly of dimers of trimeric fiber knobs as previously reported (41). E and F): Western blot using soluble recombinant DSG2 as a probe, followed by anti-DSG2-mAb and anti-mouse IgG-HRP. For comparison, JO-1 (0.5 μg/lane) is shown. The Western blots were scanned and signals were quantified.
# Mini-PROTEAN precast gels (BIO-RAD, Hercules, Calif.) with 4-15% gradient polyacrylamide were used. A total of […] protein mixed with 2× loading buffer (10 mM Tris-HCl, pH6.8, 200 mM DTT, 4% SDS, 20% glycerol, 0.2% bromophenol blue) was loaded per lane. Samples were either boiled (B) for 5 min or loaded unboiled (UB). The following running buffer was used: 25 mM Tris, pH8.3, 0.192 M glycine, 0.1% SDS. After electrophoresis, proteins were transferred to nitrocellulose and incubated with recombinant human DSG2 protein and anti-DSG2 antibodies as described previously (42). The Western blots were scanned and quantified using the ImageJ 1.32 software (National Institutes of Health, Bethesda, Md.). JO-1 band intensity was set as 100%. […]
molecule,measurement,value
B1,DSG2 binding in Western blot compared to JO-1,almost completely ablated for DSG2 binding
